In US20260217779A1 (Chugai, published 2026):

T1: human CXCR3 (hCXCR3) on Ba/F3 transfectant cells (human, UniProt P49682 1-368)
T1 sequence: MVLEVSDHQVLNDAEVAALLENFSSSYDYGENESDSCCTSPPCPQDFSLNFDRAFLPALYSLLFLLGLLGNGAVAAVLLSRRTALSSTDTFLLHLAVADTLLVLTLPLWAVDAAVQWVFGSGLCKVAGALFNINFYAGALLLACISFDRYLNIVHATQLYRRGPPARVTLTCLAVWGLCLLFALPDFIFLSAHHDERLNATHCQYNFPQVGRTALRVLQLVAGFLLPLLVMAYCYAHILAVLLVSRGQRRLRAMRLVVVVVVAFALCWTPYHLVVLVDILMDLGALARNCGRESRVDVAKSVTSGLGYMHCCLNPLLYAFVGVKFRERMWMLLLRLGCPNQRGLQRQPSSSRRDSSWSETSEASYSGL


Biological target: T1, human CXCR3 (hCXCR3) on Ba/F3 …
Assay: cell-based or functional assay

Activity retention rate at 33 nM | Activity retention rate at 100 nM | Activity retention rate at 300 nM | Luminescence value at 33 nM | Luminescence value at 100 nM | Luminescence value at 300 nM | Binder
10% | 36% | 65% | 760000 | 6.04e+06 | 8.05e+06 | hCXCL11.0046-G1T4k.one//VHn-G1T4h.one.H435R (Fc fusion) chain 1: FIPMFKRGRCLCIGPGVKAVKVADIEKASIMYPSNNCDKIEVIITLKENKGQRCLNPKSKQARLIIKKVERKNFEPKSSDKTHTCPPCPAPELRRGPSVFLFPPKPKDTLMISRTPEVTCVVVDVSHEDPEVKFNWYVDGVEVHNAKTKPREEQYNSTYRVVSVLTVLHQDWLNGKEYKCKVSNKGLPSSIEKTISKAKGQPREPQVCTLPPSREEMTKNQVSLWCLVKGFYPSDIAVEWESNGQPENNYKTTPPVLDSDGSFFLYSKLTVDKSRWQEGNVFSCSVMHEALHNHYTQKSLSLSP chain 2: EPKSSDKTHTCPPCPAPELRRGPSVFLFPPKPKDTLMISRTPEVTCVVVDVSHEDPEVKFNWYVDGVEVHNAKTKPREEQYNSTYRVVSVLTVLHQDWLNGKEYKCKVSNKGLPSSIEKTISKAKGQPREPQVYTLPPSRCEMTKNQVSLSCAVKGFYPSDIAVEWESNGQPENNYKTTPPVLDSDGSFFLVSKLTVDKSRWQEGNVFSCSVMHEALHNRYTQKSLSLSP
61% | 67% | 58% | 4.7e+06 | 1.12e+07 | 7.23e+06 | hCXCL11.0042-G1T4k.one//VHn-G1T4h.one.H435R (Fc fusion) chain 1: FEPMFKRGRCLCIGPGVKAVKVADIEKASIMYPSNNCDKIEVIITLKENKGQRCLNPKSKQARLIIKKVERKNFEPKSSDKTHTCPPCPAPELRRGPSVFLFPPKPKDTLMISRTPEVTCVVVDVSHEDPEVKFNWYVDGVEVHNAKTKPREEQYNSTYRVVSVLTVLHQDWLNGKEYKCKVSNKGLPSSIEKTISKAKGQPREPQVCTLPPSREEMTKNQVSLWCLVKGFYPSDIAVEWESNGQPENNYKTTPPVLDSDGSFFLYSKLTVDKSRWQEGNVFSCSVMHEALHNHYTQKSLSLSP chain 2: EPKSSDKTHTCPPCPAPELRRGPSVFLFPPKPKDTLMISRTPEVTCVVVDVSHEDPEVKFNWYVDGVEVHNAKTKPREEQYNSTYRVVSVLTVLHQDWLNGKEYKCKVSNKGLPSSIEKTISKAKGQPREPQVYTLPPSRCEMTKNQVSLSCAVKGFYPSDIAVEWESNGQPENNYKTTPPVLDSDGSFFLVSKLTVDKSRWQEGNVFSCSVMHEALHNRYTQKSLSLSP
61% | 75% | 67% | 4.67e+06 | 1.26e+07 | 8.3e+06 | hCXCL11.0045-G1T4k.one//VHn-G1T4h.one.H435R (Fc fusion) chain 1: FHPMFKRGRCLCIGPGVKAVKVADIEKASIMYPSNNCDKIEVIITLKENKGQRCLNPKSKQARLIIKKVERKNFEPKSSDKTHTCPPCPAPELRRGPSVFLFPPKPKDTLMISRTPEVTCVVVDVSHEDPEVKFNWYVDGVEVHNAKTKPREEQYNSTYRVVSVLTVLHQDWLNGKEYKCKVSNKGLPSSIEKTISKAKGQPREPQVCTLPPSREEMTKNQVSLWCLVKGFYPSDIAVEWESNGQPENNYKTTPPVLDSDGSFFLYSKLTVDKSRWQEGNVFSCSVMHEALHNHYTQKSLSLSP chain 2: EPKSSDKTHTCPPCPAPELRRGPSVFLFPPKPKDTLMISRTPEVTCVVVDVSHEDPEVKFNWYVDGVEVHNAKTKPREEQYNSTYRVVSVLTVLHQDWLNGKEYKCKVSNKGLPSSIEKTISKAKGQPREPQVYTLPPSRCEMTKNQVSLSCAVKGFYPSDIAVEWESNGQPENNYKTTPPVLDSDGSFFLVSKLTVDKSRWQEGNVFSCSVMHEALHNRYTQKSLSLSP
68% | 76% | 72% | 5.24e+06 | 1.27e+07 | 8.9e+06 | hCXCL11.0044-G1T4k.one//VHn-G1T4h.one.H435R (Fc fusion) chain 1: FGPMFKRGRCLCIGPGVKAVKVADIEKASIMYPSNNCDKIEVIITLKENKGQRCLNPKSKQARLIIKKVERKNFEPKSSDKTHTCPPCPAPELRRGPSVFLFPPKPKDTLMISRTPEVTCVVVDVSHEDPEVKFNWYVDGVEVHNAKTKPREEQYNSTYRVVSVLTVLHQDWLNGKEYKCKVSNKGLPSSIEKTISKAKGQPREPQVCTLPPSREEMTKNQVSLWCLVKGFYPSDIAVEWESNGQPENNYKTTPPVLDSDGSFFLYSKLTVDKSRWQEGNVFSCSVMHEALHNHYTQKSLSLSP chain 2: EPKSSDKTHTCPPCPAPELRRGPSVFLFPPKPKDTLMISRTPEVTCVVVDVSHEDPEVKFNWYVDGVEVHNAKTKPREEQYNSTYRVVSVLTVLHQDWLNGKEYKCKVSNKGLPSSIEKTISKAKGQPREPQVYTLPPSRCEMTKNQVSLSCAVKGFYPSDIAVEWESNGQPENNYKTTPPVLDSDGSFFLVSKLTVDKSRWQEGNVFSCSVMHEALHNRYTQKSLSLSP

The next lines start with the binder.

Binder | Activity retention rate at 33 nM | Activity retention rate at 100 nM | Activity retention rate at 300 nM | Luminescence value at 33 nM | Luminescence value at 100 nM | Luminescence value at 300 nM
hCXCL11.0038-G1T4k.one//VHn-G1T4h.one.H435R (Fc fusion) chain 1: WFPMFKRGRCLCIGPGVKAVKVADIEKASIMYPSNNCDKIEVIITLKENKGQRCLNPKSKQARLIIKKVERKNFEPKSSDKTHTCPPCPAPELRRGPSVFLFPPKPKDTLMISRTPEVTCVVVDVSHEDPEVKFNWYVDGVEVHNAKTKPREEQYNSTYRVVSVLTVLHQDWLNGKEYKCKVSNKGLPSSIEKTISKAKGQPREPQVCTLPPSREEMTKNQVSLWCLVKGFYPSDIAVEWESNGQPENNYKTTPPVLDSDGSFFLYSKLTVDKSRWQEGNVFSCSVMHEALHNHYTQKSLSLSP chain 2: EPKSSDKTHTCPPCPAPELRRGPSVFLFPPKPKDTLMISRTPEVTCVVVDVSHEDPEVKFNWYVDGVEVHNAKTKPREEQYNSTYRVVSVLTVLHQDWLNGKEYKCKVSNKGLPSSIEKTISKAKGQPREPQVYTLPPSRCEMTKNQVSLSCAVKGFYPSDIAVEWESNGQPENNYKTTPPVLDSDGSFFLVSKLTVDKSRWQEGNVFSCSVMHEALHNRYTQKSLSLSP | 60% | 83% | 99% | 4.63e+06 | 1.39e+07 | 1.23e+07
hCXCL11.0039-G1T4k.one//VHn-G1T4h.one.H435R (Fc fusion) chain 1: YFPMFKRGRCLCIGPGVKAVKVADIEKASIMYPSNNCDKIEVIITLKENKGQRCLNPKSKQARLIIKKVERKNFEPKSSDKTHTCPPCPAPELRRGPSVFLFPPKPKDTLMISRTPEVTCVVVDVSHEDPEVKFNWYVDGVEVHNAKTKPREEQYNSTYRVVSVLTVLHQDWLNGKEYKCKVSNKGLPSSIEKTISKAKGQPREPQVCTLPPSREEMTKNQVSLWCLVKGFYPSDIAVEWESNGQPENNYKTTPPVLDSDGSFFLYSKLTVDKSRWQEGNVFSCSVMHEALHNHYTQKSLSLSP chain 2: EPKSSDKTHTCPPCPAPELRRGPSVFLFPPKPKDTLMISRTPEVTCVVVDVSHEDPEVKFNWYVDGVEVHNAKTKPREEQYNSTYRVVSVLTVLHQDWLNGKEYKCKVSNKGLPSSIEKTISKAKGQPREPQVYTLPPSRCEMTKNQVSLSCAVKGFYPSDIAVEWESNGQPENNYKTTPPVLDSDGSFFLVSKLTVDKSRWQEGNVFSCSVMHEALHNRYTQKSLSLSP | 102% | 86% | 75% | 7.86e+06 | 1.43e+07 | 9.32e+06
hCXCL11.0040-G1T4k.one//VHn-G1T4h.one.H435R (Fc fusion) chain 1: FAPMFKRGRCLCIGPGVKAVKVADIEKASIMYPSNNCDKIEVIITLKENKGQRCLNPKSKQARLIIKKVERKNFEPKSSDKTHTCPPCPAPELRRGPSVFLFPPKPKDTLMISRTPEVTCVVVDVSHEDPEVKFNWYVDGVEVHNAKTKPREEQYNSTYRVVSVLTVLHQDWLNGKEYKCKVSNKGLPSSIEKTISKAKGQPREPQVCTLPPSREEMTKNQVSLWCLVKGFYPSDIAVEWESNGQPENNYKTTPPVLDSDGSFFLYSKLTVDKSRWQEGNVFSCSVMHEALHNHYTQKSLSLSP chain 2: EPKSSDKTHTCPPCPAPELRRGPSVFLFPPKPKDTLMISRTPEVTCVVVDVSHEDPEVKFNWYVDGVEVHNAKTKPREEQYNSTYRVVSVLTVLHQDWLNGKEYKCKVSNKGLPSSIEKTISKAKGQPREPQVYTLPPSRCEMTKNQVSLSCAVKGFYPSDIAVEWESNGQPENNYKTTPPVLDSDGSFFLVSKLTVDKSRWQEGNVFSCSVMHEALHNRYTQKSLSLSP | 81% | 78% | 41% | 6.26e+06 | 1.31e+07 | 5.05e+06
hCXCL11.0041-G1T4k.one//VHn-G1T4h.one.H435R (Fc fusion) chain 1: FDPMFKRGRCLCIGPGVKAVKVADIEKASIMYPSNNCDKIEVIITLKENKGQRCLNPKSKQARLIIKKVERKNFEPKSSDKTHTCPPCPAPELRRGPSVFLFPPKPKDTLMISRTPEVTCVVVDVSHEDPEVKFNWYVDGVEVHNAKTKPREEQYNSTYRVVSVLTVLHQDWLNGKEYKCKVSNKGLPSSIEKTISKAKGQPREPQVCTLPPSREEMTKNQVSLWCLVKGFYPSDIAVEWESNGQPENNYKTTPPVLDSDGSFFLYSKLTVDKSRWQEGNVFSCSVMHEALHNHYTQKSLSLSP chain 2: EPKSSDKTHTCPPCPAPELRRGPSVFLFPPKPKDTLMISRTPEVTCVVVDVSHEDPEVKFNWYVDGVEVHNAKTKPREEQYNSTYRVVSVLTVLHQDWLNGKEYKCKVSNKGLPSSIEKTISKAKGQPREPQVYTLPPSRCEMTKNQVSLSCAVKGFYPSDIAVEWESNGQPENNYKTTPPVLDSDGSFFLVSKLTVDKSRWQEGNVFSCSVMHEALHNRYTQKSLSLSP | 25% | 56% | 42% | 1.92e+06 | 9.37e+06 | 5.16e+06
